Laboratory results as given in publication PMC9157509.

Target: AB variant of cytochrome cb562 (forms the disulfide-linked dimer (AB)2) (UniProt P0ABE7)
Assay: solution small-angle X-ray scattering

stoichiometry N: 2
Substance: AB variant of cytochrome cb562 (forms the disulfide-linked dimer (AB)2) (from UniProt P0ABE7 23-128)
